The values that follow come from the supplement of paper PMC10126150.

± gives the standard deviation of the averaged measurements.

The data set relates to ATP. Nature of the data set: switch fluorescence ratio, 500 uM ATP over buffer (Cy3 cluster intensity, sum of 5 cycles each) (fold (ratio)); higher = stronger signal-on switching upon ATP binding; sequences stand for … in TCGTCGGCAGCGTCAGATGTGTATAAGAGACAGTTTTTTTTTTTTTTTTTTTTTTTTT…TC. The conditions noted are these: aptamer strand: ATP DNA aptamer (quencher-CACCTGGGGGAGTATTGCGGAGGAAGG + anchor), 100 nM annealed; ATP concentration: 500 uM. An outline of the steps:
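Clusters carrying Cy3-labelled switching strands on a modified Illumina MiSeq flow-cell were annealed to 100 nM quencher-labelled ATP aptamer and imaged in selection buffer. They were imaged again after 15 min with 500 uM ATP at 22 °C, over five buffer/ATP cycles with NaOH stripping and re-annealing in between. For each cluster, the fluorescence ratio is the summed Cy3 intensity of the target cycles divided by that of the buffer cycles, averaged per switch-domain sequence. Clusters outside 100-1000 RFU were left out.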
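Note: ATP exposure 15 min at 22 °C before imaging.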

As for CAGGGACGGT, the switch fluorescence ratio came to 0.975 ± 0.058.

For the sequence GTAGTAAAAC, the switch fluorescence ratio was 1.69 ± 0.087.

Take AGACTTCAGC: the switch fluorescence ratio was 1.04 ± 0.022.

As for ACCATCAAGG, the switch fluorescence ratio worked out at 0.9815 ± 0.0016.

Regarding GGGATAATGA, the switch fluorescence ratio amounted to 0.977 ± 0.035.

As to TCAAGTGGCC, the switch fluorescence ratio was 1.02 ± 0.037.

Consider GGTTGATACG, for which the switch fluorescence ratio is 0.959 ± 0.026.

As for GGGGAAAGGA, the switch fluorescence ratio came out at 0.9896 ± 0.0085.

As for GGGATTATTA, the switch fluorescence ratio turned out to be 0.981 ± 0.018.

TTCACGGGAT: the switch fluorescence ratio was 1.06 ± 0.035.

In the case of TTTAGATCAG, the switch fluorescence ratio was determined as 1.03 ± 0.013.

In the case of GAAGGCCTAG, the switch fluorescence ratio was determined as 0.9763 ± 0.0042.

For AGATTAGGGT, the switch fluorescence ratio is 1.01 ± 0.017.

AAAACTTTAC: the switch fluorescence ratio stood at 1.2918 ± 0.00043.

As to TTTCGCACTG, the switch fluorescence ratio came to 1.1 ± 0.018.

For the sequence CGGGGGGCTC, the switch fluorescence ratio was found to be 0.99 ± 0.01.

As to GCGGGGGGAT, the switch fluorescence ratio amounted to 1.02 ± 0.017.

On to AGGGGTGTG, for which the switch fluorescence ratio was determined as 1 ± 0.046.

For CGAAGATTTT, the switch fluorescence ratio was determined as 1.05 ± 0.022.

Consider CAATGAACAC, for which the switch fluorescence ratio amounted to 1.04 ± 0.031.

Turning to CTGGGGGCAA, the switch fluorescence ratio was 3.2 ± 0.68.

As to TATTAAAAAT, the switch fluorescence ratio stood at 1.03 ± 0.047.

On to TATAAGGCTA, for which the switch fluorescence ratio worked out at 1.02 ± 0.028.

TTTAAACGGT: the switch fluorescence ratio came out at 1.03 ± 0.042.

TAATTTCTGC: the switch fluorescence ratio was 0.993 ± 0.018.

Turning to GGGGGGTTTC, the switch fluorescence ratio turned out to be 1.1 ± 0.2.

In the case of CCACTGATCG, the switch fluorescence ratio stood at 1.02 ± 0.022.

For the sequence TTGAAAGGGG, the switch fluorescence ratio was 0.996 ± 0.083.

In the case of TGAAGATATA, the switch fluorescence ratio turned out to be 0.99 ± 0.015.

On to GATAGAGATT, for which the switch fluorescence ratio stood at 0.9961 ± 0.0066.

Regarding AAGGTAGGGC, the switch fluorescence ratio was determined as 1.014 ± 0.008.

As to CTGAGTCGTG, the switch fluorescence ratio came to 1 ± 0.066.

For CGGAAGGGAG, the switch fluorescence ratio turned out to be 0.996 ± 0.015.

In the case of TACGGGCACG, the switch fluorescence ratio was determined as 1.04 ± 0.028.

With GCTTTATTAA, the switch fluorescence ratio is 1 ± 0.017.

As for CATGCTGCGG, the switch fluorescence ratio came out at 0.999 ± 0.026.

For CGTTTGACTT, the switch fluorescence ratio turned out to be 0.9947 ± 0.0066.

As to CTTATTTGGT, the switch fluorescence ratio stood at 0.992 ± 0.035.

In the case of TTTTCCGGTT, the switch fluorescence ratio amounted to 1.23 ± 0.42.

Turning to GGGGGAGCTA, the switch fluorescence ratio was 1 ± 0.032.

As for GGGTTATATT, the switch fluorescence ratio was found to be 0.988 ± 0.024.

Turning to ATGATATCTC, the switch fluorescence ratio came out at 1.02 ± 0.047.

Consider GGGCTGTGGG, for which the switch fluorescence ratio turned out to be 1.01 ± 0.022.

For the sequence GAATTTGTTG, the switch fluorescence ratio worked out at 1.001 ± 0.0063.

As to TCTCCTGGGA, the switch fluorescence ratio was found to be 1.03 ± 0.018.

ACAGAATCGG: the switch fluorescence ratio was 1.03 ± 0.018.

For GAAAATTGGT, the switch fluorescence ratio was determined as 0.997 ± 0.023.

Turning to AATTGGTACG, the switch fluorescence ratio is 0.992 ± 0.021.

On to AGTGTAAGTA, for which the switch fluorescence ratio is 0.996 ± 0.03.

CAGCTAAATT: the switch fluorescence ratio is 1.02 ± 0.047.

Consider GGGGAAATTG, for which the switch fluorescence ratio was found to be 0.983 ± 0.019.

As to TGATGTTATA, the switch fluorescence ratio stood at 0.968 ± 0.022.

In the case of TGTGTCATGG, the switch fluorescence ratio turned out to be 0.986 ± 0.011.

Regarding CGGTATTCCG, the switch fluorescence ratio was determined as 0.945 ± 0.017.

On to GGGGCGCGGT, for which the switch fluorescence ratio was 1.025 ± 0.0058.

With GGGGCAAAGC, the switch fluorescence ratio is 0.96 ± 0.085.

With TACGGGGCCT, the switch fluorescence ratio amounted to 1.04 ± 0.064.

Regarding GTTTTGTGGT, the switch fluorescence ratio worked out at 0.954 ± 0.021.

In the case of GGGGTGGGGC, the switch fluorescence ratio is 1 ± 0.042.

In the case of TGGTTTCGGT, the switch fluorescence ratio amounted to 0.9903 ± 0.0017.

On to CTGTGCGTGG, for which the switch fluorescence ratio was 0.973 ± 0.029.

For the sequence GACAACGTA, the switch fluorescence ratio amounted to 0.9967 ± 0.0095.

Take CAAAAGTGGT: the switch fluorescence ratio came out at 1.01 ± 0.018.

In the case of GAAGGTTGAG, the switch fluorescence ratio was determined as 1.025 ± 0.009.

Consider AATCATTGTA, for which the switch fluorescence ratio came out at 1.01 ± 0.039.

Consider ATGGGGGAGC, for which the switch fluorescence ratio stood at 0.981 ± 0.011.

Turning to TTGGTAGGTG, the switch fluorescence ratio is 1.04 ± 0.058.

For TCGTTAGAAT, the switch fluorescence ratio was found to be 0.948 ± 0.013.

As to GGGTTAGGGT, the switch fluorescence ratio was determined as 0.991 ± 0.049.

For AATGGAGATT, the switch fluorescence ratio stood at 0.985 ± 0.031.

Turning to AATCTTTATT, the switch fluorescence ratio was 1.008 ± 0.0018.

As to GAGATTTGAC, the switch fluorescence ratio was 1.01 ± 0.025.

For GGGGAGGGTC, the switch fluorescence ratio is 1.016 ± 0.0055.

Consider CTTGAGATGT, for which the switch fluorescence ratio was found to be 1.02 ± 0.044.
